Data taken from paper PMC5640804.

Columns and labels:
[1] = molecular target: yeast Golgi t-SNARE complex Sed5/Sec22/Bos1 with D196del Bos1, preassembled and reconstituted into acceptor liposomes (S. cerevisiae) (UniProt Q01590)
[2] = molecular target: yeast Golgi t-SNARE complex Sed5/Sec22/Bos1 with G176W Bos1, preassembled and reconstituted into acceptor liposomes (S. cerevisiae) (UniProt Q01590)

B1: yeast Golgi v-SNARE Bet1, reconstituted into fluorescent donor liposomes (natural protein)
chain: MSSRFAGGNAYQRDTGRTQLFGPADGSNSLDDNVSSALGSTDKLDYSQSTLASLESQSEEQMGAMGQRIKALKSLSLKMGDEIRGSNQTIDQLGDTFHNTSVKLKRTFGNMMEMARRSGISIKTWLIIFFMVGVLFFWVWIT
Work on B1 yielded a liposome fusion assay (NBD fluorescence), reduction in fusion against WT Bos1; still above the control without Bet1 (% reduction in fusion) [1] of 60 and a liposome fusion assay (NBD fluorescence), reduction in fusion against WT Bos1; still above the control without Bet1 (% reduction in fusion) [2] of 30.
